This data set concerns the molecule itself. Briefly: cryo-EM structure; full-length AE1 from DSP-cross-linked human erythrocyte ghost membranes in MSP-1E3D1/POPC nanodiscs; dimer configurations IF1/OF, OF/OF and IF1/IF2 separated by 3D classification.

From PMC12748791 (Nature Communications, 2025) come the findings set out here.

What is called stoichiometry N is a count of units in the complex or per binding partner.

B1: Anion Exchanger 1 (AE1) (natural protein, human, UniProt P02730 1-911, looked up)
chain: MEELQDDYEDMMEENLEQEEYEDPDIPESQMEEPAAHDTEATATDYHTTSHPGTHKVYVELQELVMDEKNQELRWMEAARWVQLEENLGENGAWGRPHLSHLTFWSLLELRRVFTKGTVLLDLQETSLAGVANQLLDRFIFEDQIRPQDREELLRALLLKHSHAGELEALGGVKPAVLTRSGDPSQPLLPQHSSLETQLFCEQGDGGTEGHSPSGILEKIPPDSEATLVLVGRADFLEQPVLGFVRLQEAAELEAVELPVPIRFLFVLLGPEAPHIDYTQLGRAAATLMSERVFRIDAYMAQSRGELLHSLEGFLDCSLVLPPTDAPSEQALLSLVPVQRELLRRRYQSSPAKPDSSFYKGLDLNGGPDDPLQQTGQLFGGLVRDIRRRYPYYLSDITDAFSPQVLAAVIFIYFAALSPAITFGGLLGEKTRNQMGVSELLISTAVQGILFALLGAQPLLVVGFSGPLLVFEEAFFSFCETNGLEYIVGRVWIGFWLILLVVLVVAFEGSFLVRFISRYTQEIFSFLISLIFIYETFSKLIKIFQDHPLQKTYNYNVLMVPKPQGPLPNTALLSLVLMAGTFFFAMMLRKFKNSSYFPGKLRRVIGDFGVPISILIMVLVDFFIQDTYTQKLSVPDGFKVSNSSARGWVIHPLGLRSEFPIWMMFASALPALLVFILIFLESQITTLIVSKPERKMVKGSGFHLDLLLVVGMGGVAALFGMPWLSATTVRSVTHANALTVMGKASTPGAAAQIQEVKEQRISGLLVAVLVGLSILMEPILSRIPLAVLFGIFLYMGVTSLSGIQLFDRILLLFKPPKYHPDVPYVKRVKTWRMHLFTGIQIICLAVLWVVKSTPASLALPFVLILTVPLRRVLLPLIFRNVELQCLDADDAKATFDEEEGRDEYDEVAMPV
modifications: N-linked glycosylation at N642; lysines cross-linked with DSP (K539 and K851)
notes: Anion exchanger 1 (band 3), human, 911 residues: cytosolic domain 1-347, linker 348-370, transmembrane domain 371-911; the full-length protein was purified, only the transmembrane domain was resolved in the maps; Native protein from red blood cells; held in lipid nanodiscs (MSP-1E3D1, POPC) with PIP2 and POPC lipids at the dimer interface; also called band 3; SLC4A1
Consider B1, for which the “stoichiometry N” value was determined as 2.
